Measured values taken from patent publication US20060018919A1.
Ends that are not written are not given here.

What follows are binders tested against target rabbit anti-LOS antibody (assay: peptide ELISA, peptide coupled to NucleoLink strip, target antibody 0.4 ug/well).
NMMRFTELSTPSGGGS (also: coupled via C-terminal carboxyl to NucleoLink strips) [synthetic peptide 4 … with C-terminal GGGS spacer] was tested, and the Binding reactivity (OD405) was 0.99 OD405.
TLAHHKKPWILRGGGS (also: coupled via C-terminal carboxyl to NucleoLink strips) [synthetic peptide 5 … (control peptide from an unrelated clone) with C-terminal GGGS spacer] gave a Binding reactivity (OD405) of 0.33 OD405.
NMMNYIMDPRTHGGGS (also: coupled via C-terminal carboxyl to NucleoLink strips) [synthetic peptide 2 … with C-terminal GGGS spacer] gave a Binding reactivity (OD405) of 2.52 OD405.
NMMKYISPPIFLGGGS (also: coupled via C-terminal carboxyl to NucleoLink strips) [synthetic peptide 3 … with C-terminal GGGS spacer] gave a Binding reactivity (OD405) of 1.11 OD405.
NMMRFTSQPPNNGGGS (also: coupled via C-terminal carboxyl to NucleoLink strips) [synthetic peptide 1 … with C-terminal GGGS spacer] showed a Binding reactivity (OD405) of 0.4 OD405.

These binders were tested against target rabbit anti-LOS antibody (assay: capture ELISA, phage on coated antibody; OD over irrelevant rabbit antibody).
For NMMRFTELSTPSGGGS (peptide, not shown: large carriers) [phage clone 2-15], the Fold rise of ELISA value was 1510 fold.
